Source: patent US20210347852A1 (Regeneron, published 2021)

T1: Human VEGF121 (R&D SYSTEMS Cat #4644-VS) (human, UniProt P15692-9 27-147)
T1 sequence (looked up): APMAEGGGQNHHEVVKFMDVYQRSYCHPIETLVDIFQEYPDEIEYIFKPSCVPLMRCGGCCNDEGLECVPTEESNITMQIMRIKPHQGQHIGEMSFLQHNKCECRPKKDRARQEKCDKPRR


Experiments:
[1] = molecular target: T1, Human VEGF121 (R&D SYSTEMS Cat #4644-VS); experiment: cell-based or functional assay
[2] = molecular target: T2, Human VEGF165 (REGN110) (human, UniProt P15692-4 27-191); experiment: cell-based or functional assay
[3] = molecular target: T1, Human VEGF121 (R&D SYSTEMS Cat #4644-VS); experiment: cell-based or functional assay; remark: listed apart in the source
[4] = molecular target: T1, Human VEGF121 (R&D SYSTEMS Cat #4644-VS); experiment: cell-based or functional assay; remark: listed apart in the source
[5] = molecular target: T2, Human VEGF165 (REGN110); experiment: SPR, 25C, trap captured by REGN18, hVEGF165 injected
Procedure: (§1) Equilibrium dissociation constants (KD values) for human VEGF₁₆₅ binding to various purified VEGF mini-trap constructs were determined using a real-time surface plasmon resonance biosensor using a Biacore 3000 instrument. All binding studies were performed in 10 mM HEPES, 150 mM NaCl, 3 mM EDTA, and 0.05% v/v Surfactant Tween-20; pH 7.4 (HBS-ET) running buffer at 25° C. The Biacore sensor surface was first derivatized by amine coupling with a monoclonal mouse anti-VEGFR1 antibody (REGN18) to capture VEGF mini-trap constructs. Binding studies were performed on the following human VEGF reagents: human VEGF₁₆₅. […] Dissociation of bound VEGF₁₆₅ reagent from VEGF mini-trap constructs was monitored for 60 minutes in HBS-ET running buffer. Kinetic association (ka) and dissociation (kd) rate constants were determined by fitting the real-time sensorgrams to a 1:1 binding model using Scrubber 2.0c curve fitting software. Binding dissociation equilibrium constants (KD) and dissociative half-lives (t1/2) were calculated from the kinetic rate constants as: […]

[6] = molecular target: T2, Human VEGF165 (REGN110); experiment: SPR (Biacore 3000), 25C, trap captured by REGN18, hVEGF165 injected
Procedure: as §1

[7] = molecular target: T1, Human VEGF121 (R&D SYSTEMS Cat #4644-VS); experiment: cell-based or functional assay; remark: listed apart in the source
[8] = molecular target: T1, Human VEGF121 (R&D SYSTEMS Cat #4644-VS); experiment: cell-based or functional assay; remark: listed apart in the source

Row | Binder | IC50, Inhibition of 20 pM VEGF121, VEGFR1 assay (luciferase) [1] | IC50, VEGFR1 40 pM VEGF165 (REGN110) (luciferase) [2] | IC50, VEGFR1 40 pM R&D VEGF121 (luciferase) [3] | IC50 (read off the curve); NFkB-luciferase reporter (RLU), 293/D9/VEGFR1 cells, VEGF121 constant 40 pM [E] [4] | 2 nM VEGF165 Bound (RU) [5] | Kd [5] | koff [5] | kon [5] | t½ [5] | 2.5 nM hVEGF165 Bound (RU) [6] | Kd [6] | koff [6] | kon [6] | t½ [6] | IC50 (read off the curve); NFkB-luciferase reporter (RLU), 293/D9/VEGFR1 cells, VEGF121 constant 40 pM [B] [7] | IC50 (read off the curve); NFkB-luciferase reporter (RLU), 293/D9/VEGFR1 cells, VEGF121 constant 40 pM [D] [8]
1 | REGN10105, VEGF mini-trap hIgG2 Fc w/2Cys (other, IdeS cleaved from the IgG2 trap; they are kept as one molecule here; also called REGN10105-L3) SDTGRPFVEMYSEIPEIIHMTEGRELVIPCRVTSPNITVTLKKFPLDTLIPDGKRIIWDSRKGFIISNATYKEIGLLTCEATVNGHLYKTNYLTHRQTNTIIDVVLSPSHGIELSVGEKLVLNCTARTELNVGIDFNWEYPSSKHQHKKLVNRDLKTQSGSEMKKFLSTLTIDGVTRSDQGLYTCAASSGLMTKKNSTFVRVHEKVECPPCPAPPVA | 1.68e-11 M | 1.06e-11 M | 1.74e-11 M | ~2e-11 M | 20.4 RU | 1.08 pM | ≤ 1e-05 s⁻¹ | 9.3e+06 M⁻¹ s⁻¹ | ≥ 19.2 h | 10.5 RU | 1.89 pM | 1.44e-05 s⁻¹ | 7.62e+06 M⁻¹ s⁻¹ | 13.3 h | – | –
2 | REGN10105 (Alexa 488) (other, tagged with Alexa Fluor 488 (AF488) through amine conjugation, also called REGN10105 AF488) SDTGRPFVEMYSEIPEIIHMTEGRELVIPCRVTSPNITVTLKKFPLDTLIPDGKRIIWDSRKGFIISNATYKEIGLLTCEATVNGHLYKTNYLTHRQTNTIIDVVLSPSHGIELSVGEKLVLNCTARTELNVGIDFNWEYPSSKHQHKKLVNRDLKTQSGSEMKKFLSTLTIDGVTRSDQGLYTCAASSGLMTKKNSTFVRVHEKVECPPCPAPPVA | – | – | – | – | 18 RU | ≤ 0.74 pM | ≤ 1e-05 s⁻¹ | 1.36e+07 M⁻¹ s⁻¹ | ≥ 19.2 h | – | – | – | – | – | – | –
3 | REGN11095, VEGF mini-trap hIgG1 Mut GGGL Fc (other, also called Mini-REGN10514; mREGN10514) SDTGRPFVEMYSEIPEIIHMTEGRELVIPCRVTSPNITVTLKKFPLDTLIPDGKRIIWDSRKGFIISNATYKEIGLLTCEATVNGHLYKTNYLTHRQTNTIIDVVLSPSHGIELSVGEKLVLNCTARTELNVGIDFNWEYPSSKHQHKKLVNRDLKTQSGSEMKKFLSTLTIDGVTRSDQGLYTCAASSGLMTKKNSTFVRVHEKDKTHTCPPCPGGGLLG | – | 2.19e-11 M | 2.16e-11 M | – | 19.4 RU | ≤ 0.86 pM | ≤ 1e-05 s⁻¹ | 1.16e+07 M⁻¹ s⁻¹ | ≥ 19.2 h | – | – | – | – | – | – | –
4 | REGN11095 (Alexa 488) (other, tagged with Alexa Fluor 488 (AF488) through amine conjugation, also called REGN11095 AF488) SDTGRPFVEMYSEIPEIIHMTEGRELVIPCRVTSPNITVTLKKFPLDTLIPDGKRIIWDSRKGFIISNATYKEIGLLTCEATVNGHLYKTNYLTHRQTNTIIDVVLSPSHGIELSVGEKLVLNCTARTELNVGIDFNWEYPSSKHQHKKLVNRDLKTQSGSEMKKFLSTLTIDGVTRSDQGLYTCAASSGLMTKKNSTFVRVHEKDKTHTCPPCPGGGLLG | – | – | – | – | 14.9 RU | ≤ 0.865 pM | ≤ 1e-05 s⁻¹ | 1.16e+07 M⁻¹ s⁻¹ | ≥ 19.2 h | – | – | – | – | – | – | –
5 | REGN10104, VEGF Trap hIgG1 stealth Fc (Fc fusion) SDTGRPFVEMYSEIPEIIHMTEGRELVIPCRVTSPNITVTLKKFPLDTLIPDGKRIIWDSRKGFIISNATYKEIGLLTCEATVNGHLYKTNYLTHRQTNTIIDVVLSPSHGIELSVGEKLVLNCTARTELNVGIDFNWEYPSSKHQHKKLVNRDLKTQSGSEMKKFLSTLTIDGVTRSDQGLYTCAASSGLMTKKNSTFVRVHEKDKTHTCPPCPAPPVAGPSVFLFPPKPKDTLMISRTPEVTCVVVDVSQEDPEVQFNWYVDGVEVHNAKTKPREEQFNSTYRVVSVLTVLHQDWLNGKEYKCKVSNKGLPSSIEKTISKAKGQPREPQVYTLPPSRDELTKNQVSLTCLVKGFYPSDIAVEWESNGQPENNYKTTPPVLDSDGSFFLYSKLTVDKSRWQQGNVFSCSVMHEALHNHYTQKSLSLSPGK | 1.91e-11 M | – | – | – | – | – | – | – | – | 7.3 RU | 1.1 pM | 1.01e-05 s⁻¹ | 9.2e+06 M⁻¹ s⁻¹ | 19.1 h | ~2e-11 M | –
6 | REGN10103, VEGF mini-trap hIgG2 Fc w/4Cys (other) SDTGRPFVEMYSEIPEIIHMTEGRELVIPCRVTSPNITVTLKKFPLDTLIPDGKRIIWDSRKGFIISNATYKEIGLLTCEATVNGHLYKTNYLTHRQTNTIIDVVLSPSHGIELSVGEKLVLNCTARTELNVGIDFNWEYPSSKHQHKKLVNRDLKTQSGSEMKKFLSTLTIDGVTRSDQGLYTCAASSGLMTKKNSTFVRVHEKERKCCVECPPCPAPPVA | 2.11e-11 M | – | – | ~2e-11 M | – | – | – | – | – | 14.8 RU | ≤ 1.08 pM | ≤ 1e-05 s⁻¹ | 9.3e+06 M⁻¹ s⁻¹ | ≥ 19.2 h | – | –
7 | mREGN10187, VEGF mini-trap hIgG4 stealth Fc (other, IdeS cleaved from REGN10187; also called Mini-REGN10187) SDTGRPFVEMYSEIPEIIHMTEGRELVIPCRVTSPNITVTLKKFPLDTLIPDGKRIIWDSRKGFIISNATYKEIGLLTCEATVNGHLYKTNYLTHRQTNTIIDVVLSPSHGIELSVGEKLVLNCTARTELNVGIDFNWEYPSSKHQHKKLVNRDLKTQSGSEMKKFLSTLTIDGVTRSDQGLYTCAASSGLMTKKNSTFVRVHEKESKYGPPCPPCPAPPVA | 1.32e-11 M | – | – | – | – | – | – | – | – | 14.3 RU | ≤ 1.37 pM | ≤ 1e-05 s⁻¹ | 7.3e+06 M⁻¹ s⁻¹ | ≥ 19.2 h | – | ~1e-11 M
8 | mREGN10104, VEGF mini-trap hIgG1 stealth Fc (other, IdeS cleaved from REGN10104; also called Mini-REGN10104) SDTGRPFVEMYSEIPEIIHMTEGRELVIPCRVTSPNITVTLKKFPLDTLIPDGKRIIWDSRKGFIISNATYKEIGLLTCEATVNGHLYKTNYLTHRQTNTIIDVVLSPSHGIELSVGEKLVLNCTARTELNVGIDFNWEYPSSKHQHKKLVNRDLKTQSGSEMKKFLSTLTIDGVTRSDQGLYTCAASSGLMTKKNSTFVRVHEKDKTHTCPPCPAPPVA | 1.34e-11 M | – | – | – | – | – | – | – | – | 12.2 RU | 1.78 pM | 1.7e-05 s⁻¹ | 9.5e+06 M⁻¹ s⁻¹ | 11.3 h | ~1e-11 M | –
9 | REGN10187, VEGF Trap hIgG4 stealth Fc (Fc fusion) SDTGRPFVEMYSEIPEIIHMTEGRELVIPCRVTSPNITVTLKKFPLDTLIPDGKRIIWDSRKGFIISNATYKEIGLLTCEATVNGHLYKTNYLTHRQTNTIIDVVLSPSHGIELSVGEKLVLNCTARTELNVGIDFNWEYPSSKHQHKKLVNRDLKTQSGSEMKKFLSTLTIDGVTRSDQGLYTCAASSGLMTKKNSTFVRVHEKESKYGPPCPPCPAPPVAGPSVFLFPPKPKDTLMISRTPEVTCVVVDVSQEDPEVQFNWYVDGVEVHNAKTKPREEQFNSTYRVVSVLTVLHQDWLNGKEYKCKVSNKGLPSSIEKTISKAKGQPREPQVYTLPPSQEEMTKNQVSLTCLVKGFYPSDIAVEWESNGQPENNYKTTPPVLDSDGSFFLYSRLTVDKSRWQEGNVFSCSVMHEALHNHYTQKSLSLSLGK | 1.25e-11 M | – | – | – | – | – | – | – | – | 10.5 RU | 1.82 pM | 1.73e-05 s⁻¹ | 9.5e+06 M⁻¹ s⁻¹ | 11.1 h | – | ~1e-11 M
